Measured values as given in patent publication US20230028110A1 (ADAPTATE BIOTHERAPEUTICS, published 2023).
Read-outs that look alike come from different tables or passages of the source.

Tests used:
[1] = molecular target: T1, L1 (DV1-GV4), soluble human Vδ1/Vγ4 γδ TCR heterodimer in leucine zipper format (human); test: DELFIA, 100 nM biotinylated L1
T1 construct: Biotinylated in the DELFIA ranking; also called Antigen L1 (TRDV1/TRGV4); human DV1-GV4; not shown: gamma chain: Vγ4 (TRGV4) domain on a TCR constant region, leucine zipper, histidine tag
T1 sequence (main, as listed by the source): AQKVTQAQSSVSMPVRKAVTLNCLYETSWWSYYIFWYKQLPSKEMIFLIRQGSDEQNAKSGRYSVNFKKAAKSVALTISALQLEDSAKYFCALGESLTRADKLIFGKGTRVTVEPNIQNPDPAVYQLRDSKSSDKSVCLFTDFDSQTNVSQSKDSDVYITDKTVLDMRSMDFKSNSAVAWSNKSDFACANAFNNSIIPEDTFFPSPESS

[2] = molecular target: Vδ1 chain of the γδ TCR on human Vδ1 γδ T cells (human); test: cell-based or functional assay
[3] = molecular target: T2, Vδ1 chain of the γδ TCR on human Vδ1 γδ T cells (human); test: flow cytometry binding to Vδ1 γδ T cells, donor TS164; column head printed 'IC50', unit nM from the chart axis and FIG. 34D
T2 construct: whole, on cells; also called cell surface Vδ1 TCR; Vδ1-positive γδ T cells
T2 sequence (A0A1B0GX56 22-115, stated change not applied): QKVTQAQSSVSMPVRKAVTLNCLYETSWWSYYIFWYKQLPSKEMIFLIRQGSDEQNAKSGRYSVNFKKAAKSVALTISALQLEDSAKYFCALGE
Method: (§1) All incubation steps were performed at 4° C. and mAb binding was determined using flow cytometry to measure the median level of fluorescence. Logarithmic four parameter dose-response curves were fitted using GraphPad Prism 9. […] For Vδ1-positive γδ T cell, data is represented as the mean two donors.
(§2) A range of target cells were assayed to determine the specificity and affinity of Vδ1 mAb binding. This included expanded skin-derived Vδ1 γδ T-cells, HEK293T cells, Raji cells, and multiple leukocyte subsets within human primary blood mononuclear cells. Adherent or semi-adherent cells (skin-derived Vδ1 γδ T-cells, HEK293T) were detached from tissue culture flask and resuspended in PBS. Similarly, non-adherent cell types (Raji, PBMC), were harvested and resuspended in PBS. Cells were seeded at a final density of 100,000 cells per well in v-bottom 96-well plates. Cells underwent centrifugation and the cell pellets were resuspended in FcR blocking reagent according to the manufacturer's instructions, and incubated for 20 minutes at 4C prior to a further wash. […] To determine the quantity of mAb bound to the cell surface, the cells were then stained with a murine anti-human IgG secondary antibody, conjugated to APC (dilution: 1:100). For Vδ1 γδ T-cells, HEK293T and Raji, the cells were also stained solely with a viability dye.

[4] = molecular target: T2, Vδ1 chain of the γδ TCR on human Vδ1 γδ …; test: flow cytometry binding to Vδ1 γδ T cells, donor ATS006; column head printed 'IC50', unit nM from the chart axis and FIG. 34D
Method: as §1, §2

[5] = molecular target: T1, L1 (DV1-GV4), soluble human Vδ1/Vγ4 γδ …; test: SPR (Reichert 4SPR), antibody on Protein A chip, human Vδ1 antigen as analyte; average of two replicates on two instruments
From the text: (§3) The binding affinity of the antibodies to target (i.e. the Vδ1 chain of a γδ TCR) is established by SPR analysis using a Reichert 4SPR instrument (Reichert Technologies).
(§4) The binding interaction of Vδ1 and the affinity-matured mAbs were modelled according to Langmuir 1:1 binding.

[6] = molecular target: T1, L1 (DV1-GV4), soluble human Vδ1/Vγ4 γδ …; test: DELFIA ELISA, human antigen; heat map cell of the clone
[7] = molecular target: T2, Vδ1 chain of the γδ TCR on human Vδ1 γδ …; test: flow cytometry, Vδ1 γδ T cells of donor ATS006, mAb titrated up to about 500 nM at 4 C, anti-human IgG detection
Method: as §1, §2

[8] = molecular target: T2, Vδ1 chain of the γδ TCR on human Vδ1 γδ …; test: flow cytometry, Vδ1 γδ T cells of donor TS164, mAb titrated up to about 500 nM at 4 C, anti-human IgG detection
Method: as §1, §2

[9] = molecular target: T2, Vδ1 chain of the γδ TCR on human Vδ1 γδ …; test: cell-based or functional assay; remark: listed apart in the source
[10] = molecular target: T2, Vδ1 chain of the γδ TCR on human Vδ1 γδ …; test: cell-based or functional assay; remark: listed apart in the source
[11] = molecular target: T1, L1 (DV1-GV4), soluble human Vδ1/Vγ4 γδ …; test: DELFIA ELISA on antigen L1 (TRDV1/TRGV4), 1/2 dilution series of mAb
[12] = molecular target: T3, Her2 on Her2+ breast cancer cells (SK-BR-3, BT-474) (human, UniProt P04626 23-1255); test: flow cytometry on SK-BR-3 cells, anti-human IgG secondary antibody
T3 construct: whole, on cells; also called ErbB-2; CD340

[13] = molecular target: T1, L1 (DV1-GV4), soluble human Vδ1/Vγ4 γδ …; test: DELFIA ELISA, 0.4 nM human TRDV1 antigen; heat map cell of the clone
[14] = molecular target: T1, L1 (DV1-GV4), soluble human Vδ1/Vγ4 γδ …; test: SPR (Reichert 4SPR), antibody on Protein A chip, human Vδ1 antigen as analyte; average of two replicates on two instruments; remark: listed apart in the source
From the text: as §3, §4

[15] = molecular target: T1, L1 (DV1-GV4), soluble human Vδ1/Vγ4 γδ …; test: SPR (Reichert 4SPR), antibody on Protein A chip, Vδ1 heterodimer at 6.25-100 nM as analyte
[16] = molecular target: T4, Cyno DV1/GV77 antigen, recombinant cynomolgus Vδ1 heterodimer (cynomolgus monkey); test: as above
T4 construct: also called cyno TRDV1; Cyno DV1-77; not shown: delta CDR3/J, TCR constant region, zipper and tag; the whole gamma chain GV77
T4 sequence (delta, as listed by the source limits assumed): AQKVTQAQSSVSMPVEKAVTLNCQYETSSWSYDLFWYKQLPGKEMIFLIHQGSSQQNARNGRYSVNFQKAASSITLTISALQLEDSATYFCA

[17] = molecular target: T2, Vδ1 chain of the γδ TCR on human Vδ1 γδ …; test: cell-based or functional assay; remark: listed apart in the source
[18] = molecular target: T2, Vδ1 chain of the γδ TCR on human Vδ1 γδ …; test: cell-based or functional assay; remark: listed apart in the source
[19] = molecular target: T4, Cyno DV1/GV77 antigen, recombinant …; test: DELFIA ELISA, cyno antigen; heat map cell of the clone
[20] = molecular target: T4, Cyno DV1/GV77 antigen, recombinant …; test: SPR (Reichert 4SPR), antibody on Protein A chip
[21] = molecular target: T1, L1 (DV1-GV4), soluble human Vδ1/Vγ4 γδ …; test: SPR (summary table)
[22] = molecular target: T1, L1 (DV1-GV4), soluble human Vδ1/Vγ4 γδ …; test: SPR, captured IgG, human DV1-GV4 flown over
[23] = molecular target: 4-1BB on 4-1BB+ NFAT Jurkat cells (human, UniProt Q07011); test: cell-based or functional assay
4-1BB on 4-1BB+ NFAT Jurkat cells, sequence (Q07011 24-255 limits assumed): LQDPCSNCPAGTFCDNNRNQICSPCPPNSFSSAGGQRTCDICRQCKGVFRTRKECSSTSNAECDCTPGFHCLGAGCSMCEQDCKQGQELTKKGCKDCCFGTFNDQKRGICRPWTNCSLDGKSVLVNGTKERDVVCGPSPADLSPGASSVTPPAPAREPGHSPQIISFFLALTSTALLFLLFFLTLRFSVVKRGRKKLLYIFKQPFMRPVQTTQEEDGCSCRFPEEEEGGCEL

[24] = molecular target: T2, Vδ1 chain of the γδ TCR on human Vδ1 γδ …; test: cell-based or functional assay; remark: listed apart in the source
[25] = molecular target: T2, Vδ1 chain of the γδ TCR on human Vδ1 γδ …; test: flow cytometry on Vδ1 γδ T-cells, anti-human IgG secondary antibody, % cells bound IgG
[26] = molecular target: T2, Vδ1 chain of the γδ TCR on human Vδ1 γδ …; test: cell-based or functional assay; remark: listed apart in the source
[27] = molecular target: T1, L1 (DV1-GV4), soluble human Vδ1/Vγ4 γδ …; test: SPR (Reichert 4SPR), antibody on Protein A chip, antigen flown over
Method: Recombinant human Vδ1 heterodimer or human 4-1BB was flown over the cell at a top concentration of 100 nM.

[28] = molecular target: T5, FAPα on FAPα+ fibroblasts (human, UniProt Q12884 1-760); test: flow cytometry on BJ fibroblasts, anti-human Fc secondary antibody, % IgG bound cells
T5 construct: whole, on cells; also called FAPα+ target cells (BJ fibroblasts, human dermal fibroblasts)
Method: (§5) After washing, cells were incubated for a further 15 minutes with anti-human Fc secondary antibodies before washing and fixing. The amount of antibody bound to each cell type was determined by flow cytometry.

[29] = molecular target: T2, Vδ1 chain of the γδ TCR on human Vδ1 γδ …; test: flow cytometry on Vδ1 γδ T-cells, anti-human Fc secondary antibody, % IgG bound cells
Method: as §5

[30] = molecular target: T1, L1 (DV1-GV4), soluble human Vδ1/Vγ4 γδ …; test: SPR (Reichert 4SPR), antibody on Protein A chip, antigen flown over; remark: listed apart in the source
Method: (§6) Recombinant human Vδ1 heterodimer or human FAPα was flown over the cell at a concentration of 100 nM with the following parameters: 180 s association, 480 s dissociation, flowrate 25 μL/min, running buffer PBS+0.05% Tween 20. All experiments were performed at room temperature.

Recombinant human FAPα = Recombinant human FAPα (human, UniProt Q12884 26-760); test: as above
Method: as §6

B1: 1251_P02_G10 (antibody, IgG1, V domains shown)
VH: EVQLVESGGGLVQPGGSLRLSCAASGFTFSDYYMSWIRQAPGKGLEWVSYISSSGSTIYYADSVKGRFTISRDNAKNSLYLQMNSLRAEDTAVYYCARHSWNDAFDIWGRGTLVTVSS
VL: DIQMTQSPSSLSASVGDRVTITCRASQSISSHLNWYQQKPGKAPKLLIYAASSLQSGVPSRFSASGSGTDFTLTISSLQPEDFATYYCQQSYSTLLTFGGGTKVEIK
notes: IgG1
- DELFIA signal at 100 nM L1 [1]: 17100 fluorescence units
- TCR downregulation (EC50 µg/ml-3 donors) [2]: 0.849 µg/mL

B2: ADT1-7-3 (antibody, IgG1, V domains shown)
VH: EVQLVESGGGLVKPGGSLRLSCAASGFTFSDYYMSWIRQAPGKGLEWVSYISSSGSTIYYADSVKGRFTISRDNAKNSLYLQMNSLRAEDTAVYYCARVSYAEAFDIWGQGTLVTVSS
VL: DIQMTQSPSSLSASVGDRVTIACRAGQSIGTYLNWYQQKPGKAPKLLIYVASSLQSGVPSRFSGSGSGTEFTLTISSLQPEDFATYYCQQSYSGLDTFGRGTKVEIK
notes: IgG1
- EC50 [3]: 0.952 nM
- EC50 [4]: 5.15 nM
- Kd [5]: 3.78 nM
- ELISA signal (heat map) [6]: 37100
- EC50 (read off the curve) [7]: ~5 nM
- EC50 (read off the curve) [8]: ~1 nM
- IC50 TCR DR (no THP-1) [9]: 161 pM
- IC90 TCR DR (noTHP-1) [9]: 0.79 nM

B3: 1245_P01_B07 (antibody, IgG1, V domains shown)
VH: EVQLLESGGGLVKPGGSLRLSCAASGFTFSDYYMSWIRQAPGKGLEWVSYISSSGSTIYYADSVKGRFTISRDNAKNSLYLQMNSLRAEDTAVYYCARENYLNAFDIWGRGTLVTVSS
VL: DIQMTQSPSSLSASVGDRVTITCRTSQSLSNYLNWYQQKPGKAPKLLIYAASSLQSGVPSRFSGSGSGTDFTLTISSLQPEDFATYYCQQSYSTPLTFGGGTKLEIK
notes: IgG1
- DELFIA signal at 100 nM L1 [1]: 64300 fluorescence units
- TCR downregulation (EC50 µg/ml), 1 donor only [2]: 0.35 µg/mL

B4: ADT1-7-61 (antibody, IgG1, V domains shown)
VH: EVQLVESGGGLVKPGGSLRLSCAASGFTFSDYYMSWIRQAPGKGLEWVSYISSSGSTIYYADSVKGRFTISRDNAKNSLYLQMNSLRAEDTAVYYCARDDYDDAFDIWGQGTLVTVSS
VL: DIQMTQSPSSLSASVGDRVTIACRAGQSIGTYLNWYQQKPGKAPKLLIYVASSLQSGVPSRFSGSGSGTEFTLTISSLQPEDFATYYCQQSASELLTFGRGTKVEIK
notes: IgG1
- EC50 [3]: 196 nM
- EC50 [4]: 93 nM
- Kd [5]: 1.04 nM
- IC50 of TCR downregulation (Vδ1 TCR staining as % MFI, soluble antibody, 2 h, average of two γδ cell donors) [10]: 6.26 nM
- ELISA signal (heat map) [6]: 32700
- IC50 TCR DR (no THP-1), one donor only [9]: 173 pM

B5: 1245_P02_G04 (antibody, IgG1, V domains shown)
VH: QVQLQQSGPGLVKPSQTLSLTCAISGDSVSSKSAAWNWIRQSPSRGLEWLGRTYYRSKWSTDYAASVKSRITINPDTSKNQLSLQLNSVTPEDTAVYYCARTWSGYVDVWGQGTLVTVSS
VL: DIQMTQSPPALSASVGDRVTITCRASQDINDWLAWYQHKPGKAPKLLIYDASSLESGVPSRFSGSGSGTEFTLTISSLQPDDFATYYCQQSYSTPQVTFGQGTRLEIK
notes: also called ADT1-4; parental ADT1-4
- EC50 (read off the curve) [11]: ~0.07 µg/mL
- EC50 [3]: 576 nM
- EC50 [4]: 108 nM
- DELFIA signal at 100 nM L1 [1]: 5900 fluorescence units
- binding result [12]: no binding (tested: about 300 nM)
- ELISA signal (heat map) [13]: 1200
- Kd [14]: 149 nM
- Kd [15]: 47 nM
- Kd [16]: 397 nM
- IC50 TCR DR (no THP-1) [17]: 38.2 nM
- IC90 TCR DR (noTHP-1) [17]: 72.4 nM
- TCR downregulation IC50, soluble assay, added in solution [18]: 38.3 nM
- ELISA signal (heat map) [19]: 196

B6: ADT1-4 (S74L) (antibody, V domains shown)
VH: QVQLQQSGPGLVKPSQTLSLTCAISGDSVSSKSAAWNWIRQSPSRGLEWLGRTYYRSKWSTDYAASVKSRITINPDTSKNQLSLQLNSVTPEDTAVYYCARTWSGYVDVWGQGTLVTVSS
VL: DIQMTQSPPALSASVGDRVTITCRASQDINDWLAWYQHKPGKAPKLLIYDASSLESGVPLRFSGSGSGTEFTLTISSLQPDDFATYYCQQSYSTPQVTFGQGTRLEIKR
notes: Captured on Protein A; also called ADT1-4 (574L)
- fold increase in affinity against ADT1-4 [20]: ~5 fold
- Kd [15]: 3.5 nM
- Kd [16]: 77 nM

B7: ADT1-4-1 (antibody, IgG1, V domains shown)
VH: EVQLQQSGPGLVKPSQTLSLTCAISGDSVSSKSAAWNWIRQSPSRGLEWLGRTYYRSKWSTDYAASVKSRITINPDTSKNQLSLQLNSVTPEDTAVYYCARTWVGYADVWGQGTLVTVSS
VL: DIQMTQSPPALSASVGDRVTITCRASQDINDWLAWYQHKPGKAPKLLIYDASSLESGVPLRFSGSGSGTEFTLTISSLQPDDFATYYCQQRYSTPIVTFGQGTRLEIK
notes: IgG1
- Kd [21]: 0.08 nM
- Kd [22]: 0.08 nM

B8: Anti-Vδ1xanti-4-1BB (ADT1-4-2xutomilumab) bispecific antibody (bispecific antibody, human IgG1, kappa)
light: DIQMTQSPPALSASVGDRVTITCRASQDINDWLAWYQHKPGKAPKLLIYDASSLESGVPLRFSGSGSGTEFTLTISSLQPDDFATYYCQQKYSAPQVTFGQGTRLEIKRTVAAPSVFIFPPSDEQLKSGTASVVCLLNNFYPREAKVQWKVDNALQSGNSQESVTEQDSKDSTYSLSSTLTLSKADYEKHKVYACEVTHQGLSSPVTKSFNRGEC
heavy: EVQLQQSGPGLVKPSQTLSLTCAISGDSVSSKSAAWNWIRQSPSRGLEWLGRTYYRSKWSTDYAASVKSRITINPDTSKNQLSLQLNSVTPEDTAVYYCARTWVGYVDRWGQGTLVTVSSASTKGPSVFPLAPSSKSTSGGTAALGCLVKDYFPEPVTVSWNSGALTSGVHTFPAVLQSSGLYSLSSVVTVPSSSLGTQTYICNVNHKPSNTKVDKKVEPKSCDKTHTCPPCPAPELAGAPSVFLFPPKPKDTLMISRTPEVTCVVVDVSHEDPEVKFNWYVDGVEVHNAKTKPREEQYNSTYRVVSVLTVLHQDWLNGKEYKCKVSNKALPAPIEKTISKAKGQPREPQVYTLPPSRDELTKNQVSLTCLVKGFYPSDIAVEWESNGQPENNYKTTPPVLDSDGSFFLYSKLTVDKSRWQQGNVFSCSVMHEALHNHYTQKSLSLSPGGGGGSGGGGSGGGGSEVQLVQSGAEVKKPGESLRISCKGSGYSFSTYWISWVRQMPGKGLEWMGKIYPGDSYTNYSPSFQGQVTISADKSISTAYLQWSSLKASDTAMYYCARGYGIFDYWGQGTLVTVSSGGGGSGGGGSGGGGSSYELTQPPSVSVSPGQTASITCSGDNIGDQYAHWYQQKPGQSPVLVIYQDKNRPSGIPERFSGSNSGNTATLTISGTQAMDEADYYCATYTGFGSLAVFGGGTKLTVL
notes: also called ADT1-4-2x 4-1BB; Vδ1-4-1BB bispecific antibody
- EC50 (read off the curve), 4-1BB+ NFAT Jurkat activation assay [23]: 10 to 20 nM
- IC50 (read off the curve), Vδ1 TCR downregulation, γδ T-cells alone [24]: ~0.2 nM
- EC50 (read off the curve) [25]: ~0.3 nM
- IC50 (read off the curve), Vδ1 TCR downregulation, γδ T-cells with activated 4-1BB+ CD8 T-cells [26]: ~0.1 nM
- Kd [27]: 1.2 nM

B9: Anti-Vδ1xFAPα (ADT1-4-2x sibrotuzumab) bispecific antibody (bispecific antibody, human IgG1, kappa)
light: DIQMTQSPPALSASVGDRVTITCRASQDINDWLAWYQHKPGKAPKLLIYDASSLESGVPLRFSGSGSGTEFTLTISSLQPDDFATYYCQQKYSAPQVTFGQGTRLEIKRTVAAPSVFIFPPSDEQLKSGTASVVCLLNNFYPREAKVQWKVDNALQSGNSQESVTEQDSKDSTYSLSSTLTLSKADYEKHKVYACEVTHQGLSSPVTKSFNRGEC
heavy: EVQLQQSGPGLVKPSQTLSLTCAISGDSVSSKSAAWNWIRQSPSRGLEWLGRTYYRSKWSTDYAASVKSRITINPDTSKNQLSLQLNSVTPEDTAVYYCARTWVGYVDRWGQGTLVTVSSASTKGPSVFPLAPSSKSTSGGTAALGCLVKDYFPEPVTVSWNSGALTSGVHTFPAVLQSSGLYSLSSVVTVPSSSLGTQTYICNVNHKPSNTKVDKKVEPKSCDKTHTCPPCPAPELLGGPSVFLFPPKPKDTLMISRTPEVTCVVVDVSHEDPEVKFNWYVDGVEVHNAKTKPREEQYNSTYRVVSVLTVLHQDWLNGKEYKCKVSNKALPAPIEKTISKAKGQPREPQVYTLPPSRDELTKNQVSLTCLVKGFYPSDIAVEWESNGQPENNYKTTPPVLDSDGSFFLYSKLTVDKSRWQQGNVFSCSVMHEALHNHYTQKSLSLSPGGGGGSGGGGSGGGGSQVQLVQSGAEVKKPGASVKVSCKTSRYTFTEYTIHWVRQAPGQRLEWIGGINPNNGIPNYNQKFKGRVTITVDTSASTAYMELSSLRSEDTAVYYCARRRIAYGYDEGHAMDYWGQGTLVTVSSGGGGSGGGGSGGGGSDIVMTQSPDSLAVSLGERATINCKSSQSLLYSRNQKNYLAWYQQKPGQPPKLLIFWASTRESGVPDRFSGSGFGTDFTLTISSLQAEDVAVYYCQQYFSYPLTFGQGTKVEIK
notes: also called ADT1-4-2 × FAP alpha; Vδ1-FAPα bispecific antibody
- EC50 (read off the curve) [28]: ~1 nM
- EC50 (read off the curve) [29]: ~0.5 nM
- Kd [30]: 0.26 nM
- Kd (Recombinant human FAPα): 1.4 nM
